The conditions of test [1]: from literature; cited from earlier work.
For test [2], the system named is white flowered Petunia mutant (W80). Type of test: in vivo. The following applies: W80 line (lacks DFR activity, accumulates primarily DHK); DFR gene under 35S CaMV promoter.
Test [3] has the same test system. As to the kind of experiment: TLC analysis of anthocyanidins produced in transgenic W80 Petunia flowers. The following applies: W80 line, anthocyanidins on cellulose TLC against pelargonidin, cyanidin, delphinidin standards. Type of test: in vivo. The text has this: In accordance with the present invention, the substrate specificity determining region was identified by determining the abilities of three chimeric DFRs to catalyze the reduction of DHK in the transgenic Petunia lines. In order to identify the region of DFR that determines its substrate specificity, we constructed chimeric DFR genes using cDNA sequences of Petunia (SEQ ID NO: 35) and Gerbera (SEQ ID NO; 1). […] We built three different chimeric genes using regions of high homology as common PCR primer sites (FIG. 1A). The chimeric genes were transformed into a white flowered Petunia mutant (W80) that lacks DFR activity and accumulates primarily DHK but with appreciable amounts of dihydroquercetin (DHQ) and dihydromyricetin (DHM) (Huits et at, 1994). […] The hue of Chimera 1 flowers is very similar to the inbred Petunia mutant RLO1, which has functional DFR activity and accumulates DHK. […] The identified region (approx. 40 amino acids) is highly variable in DFRs from different plant species. By excluding the completely conserved amino acid sequences at the borders, the identified region is narrowed down to 26 amino acids. Hereinafter, this region is referred as substrate specificity determining region.
Anthocyanidins were separated on cellulose TLC plates as described (Johnson, et al. Plant J. 19:81-85 (1999)). Corollas were sometimes stored at 4° C. for extended periods of time in methanol-0.5% HCl solution. Before adding iso-amylalcohol, the flower extracts were quantified at 530 nm to ensure uniform loading on the TLC plate. Anthocyanin standards were purchased from Apin Chemicals Ltd. (Oxfordshire, England).

For test [4], the system named is WR Petunia line (dfr^−/−, F3′H^+/+). In words: TLC analysis of pigments in WR crossed lines. It is filed as in vivo. The text has this: (§1) In accordance with the present invention, a DHK-specific DFR was developed by replacing asparagine at 134th amino acid residue of Gerbera DFR to leucine. […] Since the W80 Petunia line we transformed accumulates mainly DHK with small amount of DHQ and DHM, it was not clear if the N134L mutant DFR completely lost the capability of reducing DHQ and DHM. To investigate if the N134L mutant DFR produces only pelargonidin in the presence of fully active flavonoid-3′-hydroxylase (F3′H) or flavonoid-3′,5′-hydroxylase (F3′5′H), we crossed our N134L transformant with Petunia lines that are either dfr^−/−/F3′H^+/+ (WR line) or dfr^−/−/F3′5′H^+/+ (WV line). […] To determine the pigments produced in these crossed lines, we performed TLC analysis.
(§2) Gerbera DFR genes containing one amino acid point mutation were made in a similar manner as the chimeric genes. The 5′ region was synthesized using a primer having the Gerbera DFR starting methionine and a primer containing a single codon change. The 3′ region was made with a complementary primer with the single codon change and a primer having the stop codon of Gerbera DFR. The full length mutant sequence was assembled like the chimeric genes above. Each point mutant was cloned into a vector having the 35S CaMV promoter and NOS terminator. The mutagenized region of each mutant DFR was sequenced to ensure the correct residue was changed. Point mutants were then transformed into the W80 Petunia line. The transformants expressing the DFR genes were crossed with WR Petunia line (dfr^−/−, F3′H^+/+) and WV Petunia line (dfr^−/−, F3′5′H^+/+) to determine the substrate specificity of the mutated DFR. Mutations in other loci were not determined in these two Petunia lines.
(§3) Anthocyanidins were separated on cellulose TLC plates as described (Johnson, et al. Plant J. 19:81-85 (1999)). Corollas were sometimes stored at 4° C. for extended periods of time in methanol-0.5% HCl solution. Before adding iso-amylalcohol, the flower extracts were quantified at 530 nm to ensure uniform loading on the TLC plate. […]

The subject of test [5] is WV Petunia line (dfr^−/−, F3′5′H^+/+). In words: Flower colour of WV Petunia line crossed with DFR transformants. It is filed as in vivo.
From the text: as §1
(§4) Gerbera DFR genes containing one amino acid point mutation were made in a similar manner as the chimeric genes. The 5′ region was synthesized using a primer having the Gerbera DFR starting methionine and a primer containing a single codon change. The 3′ region was made with a complementary primer with the single codon change and a primer having the stop codon of Gerbera DFR. The full length mutant sequence was assembled like the chimeric genes above. Each point mutant was cloned into a vector having the 35S CaMV promoter and NOS terminator. […] Mutations in other loci were not determined in these two Petunia lines.

Test [6] shares this test system. In words: TLC analysis of pigments in WV crossed lines. It is filed as in vivo.
From the text: as §1, §2, §3

Test [7] has as its system WR Petunia line (dfr^−/−, F3′H^+/+). As to the kind of experiment: Flower colour of WR Petunia line crossed with DFR transformants. Type of test: in vivo.
From the text: as §1, §4

The nature of test [8]: Substrate specificity of DFR (reduction of dihydroflavonols). The following applies: concluded from flower colour and TLC data of WR and WV crosses.
From the text: as §1, §4

Changes are numbered by the printed parent chain. Numbers in names are those of the source. Entries after “also recorded” stand apart in the source; their conditions may differ.

B1: maize DFR: maize DFR introduced into a Petunia mutant line (Meyer et al.) (protein, UniProt P51108 1-357, looked up)
Dihydroflavonol 4-reductase: MERGAGASEKGTVLVTGASGFVGSWLVMKLLQAGYTVRATVRDPANVGKTKPLMDLPGATERLSIWKADLAEEGSFHDAIRGCTGVFHVATPMDFLSKDPENEVIKPTVEGMISIMRACKEAGTVRRIVFTSSAGTVNLEERQRPVYDEESWTDVDFCRRVKMTGWMYFVSKTLAEKAALAYAAEHGLDLVTIIPTLVVGPFISASMPPSLITALALITGNAPHYSILKQVQLIHLDDLCDAEIFLFENPAAAGRYVCSSHDVTIHGLAAMLRDRYPEYDVPQRFPGIQDDLQPVRFSSKKLQDLGFTFRYKTLEDMFDAAIRTCQEKGLIPLATAAGGDGFASVRAPGETEATIGA
For B1, the “substrate use among DHK, DHQ and DHM” value in test [1] was “can convert all three dihydroflavonols to their leucocyanidins”.

B2: Gerbera DFR: wild type Gerbera dihydroflavonol 4-reductase (SEQ ID NO: 2) (protein)
chain: MEEDSPATVCVTGAAGFIGSWLVMRLLERGYVVHATVRDPGDLKKVKHLLELPKAQTNLKLWKADLTQEGSFDEAIQGCHGVFHLATPMDFESKDPENEIIKPTIEGVLSIIRSCVKAKTVKKLVFTSSAGTVNGQEKQLHVYDESHWSDLDFIYSKKMTAWMYFVSKTLAEKAAWDATKGNNISFISIIPTLVVGPFITSTFPPSLVTALSLITGNEAHYSIIKQGQYVHLDDLCECHIYLYENPKAKGRYICSSHDATIHQLAKIIKDKWPEYYIPTKFPGIDEELPIVSFSSKKLIDTGFEFKYNLEDMFKGAIDTCREKGLLPYSTIKNHINGNHVNGVHHYIKNNDDDHEKGLLCCSKEGQ
On to B2, for which the “flower color of transgenic Petunia” value in test [2] is “orange/bric-red color”. The “substrate use among DHK, DHQ and DHM” value in test [1] was “able to catalyze dihydrokaempferol (DHK)”. Also, the “pigments produced in transgenic Petunia flowers (TLC)” value is “production of appreciable amounts of cyanidin and delphinidin in addition to pelargonidin” in test [3] (listed as native Gerbera DFR); “accumulated significant amount of cyanidin and delphinidin in addition to perlargonidin” in test [3] (listed as wild type Gebera DFR). Further, the “pigments accumulated in crossed line (TLC)” value in test [4] (listed as DFR^WT) is “mainly accumulated cyanidin”; in test [4] (listed as wild type DFR), “cyanidin”; in test [6] (listed as DFR^WT), “accumulated mainly delphinidin”; in test [6] (listed as wild type DFR) it was “delphinidin”. The “flower color of crossed line” value was “violet colored flowers” in test [5] and “red colored flowers” in test [7].

B3: N134L: DFR that has leucine instead of aspargine at the 134th position of Gerbera DFR (SEQ ID NO 4) (protein)
chain: B2 chain with N134L
B3: the “flower color of transgenic Petunia” value in test [2] was “slightly different colored flowers”. Moreover, the “substrate preference among DHK, DHQ and DHM” value in test [8] is “preferentially utilizes DHK as a substrate over DHQ and cannot reduce DHM”. The “pigments produced in transgenic Petunia flowers (TLC)” value in test [3] was “accumulated mostly pelargonidin”; in test [3] (listed as DHK-specific DFR), “production of only pelargonidin”. For the same molecule, the “pigments accumulated in crossed line (TLC)” value in test [4] (listed as DFR^N134L) was “accumulated pelargonidin and cyanidin; also recorded: accumulated a large amount of pelargonidin”; in test [6] (listed as DFR^N134L), “did not accumulated any pigment other than background level of delphinidin; also recorded: no appreciable amounts of anthocyanidins accumulated other than a background level of delphinidin”. The “flower color of crossed line” value is “white flowers” in test [5] and “orange colored flowers” in test [7].

(Values after patent US6555734B2, “Genetic sequences encoding substrate-specific dihydroflavonol 4-reductase and uses therefor” (Korea Kumho Petrochemical Co., Ltd., priority 2000, dated 2003).)
